Experimental data: US20100184047A1, “SCREENING AND THERAPEUTIC METHOD FOR NSCLC TARGETING THE CDCA8-AURKB COMPLEX” (ONCOTHERAPY SCIENCE, INC., priority 2007, published 2010)
Residues, ends and D or L forms follow the SMILES beside them.

T1: 11R-CDCA8261-280
T1 chain: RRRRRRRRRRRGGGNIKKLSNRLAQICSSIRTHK

T2: CDCA8delta11
T2 chain: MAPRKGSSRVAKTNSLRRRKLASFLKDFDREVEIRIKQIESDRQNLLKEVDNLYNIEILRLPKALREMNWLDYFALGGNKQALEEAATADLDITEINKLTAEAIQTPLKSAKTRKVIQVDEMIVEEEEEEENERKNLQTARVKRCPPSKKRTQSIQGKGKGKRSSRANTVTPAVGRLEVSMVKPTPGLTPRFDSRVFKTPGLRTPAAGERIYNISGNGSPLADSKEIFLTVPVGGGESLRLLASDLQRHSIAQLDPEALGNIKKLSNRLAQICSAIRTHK

T3: CDCA8delta12
T3 chain: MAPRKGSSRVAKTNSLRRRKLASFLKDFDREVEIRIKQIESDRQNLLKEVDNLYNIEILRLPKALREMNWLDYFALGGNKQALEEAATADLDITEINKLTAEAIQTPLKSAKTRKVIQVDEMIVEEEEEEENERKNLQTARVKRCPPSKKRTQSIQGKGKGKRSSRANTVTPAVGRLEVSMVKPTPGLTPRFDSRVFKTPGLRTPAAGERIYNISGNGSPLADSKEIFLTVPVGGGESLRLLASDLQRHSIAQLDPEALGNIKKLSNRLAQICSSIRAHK

T4: CDCA8delta13
T4 chain: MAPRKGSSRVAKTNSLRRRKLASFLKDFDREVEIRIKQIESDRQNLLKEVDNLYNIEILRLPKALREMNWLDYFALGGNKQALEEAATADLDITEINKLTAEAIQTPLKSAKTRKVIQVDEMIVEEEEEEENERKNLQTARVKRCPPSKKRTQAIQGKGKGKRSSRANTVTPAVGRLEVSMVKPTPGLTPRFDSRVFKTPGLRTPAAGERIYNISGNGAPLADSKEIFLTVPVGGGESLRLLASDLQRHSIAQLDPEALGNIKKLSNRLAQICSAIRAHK

T5: CDCA8delta8
T5 chain: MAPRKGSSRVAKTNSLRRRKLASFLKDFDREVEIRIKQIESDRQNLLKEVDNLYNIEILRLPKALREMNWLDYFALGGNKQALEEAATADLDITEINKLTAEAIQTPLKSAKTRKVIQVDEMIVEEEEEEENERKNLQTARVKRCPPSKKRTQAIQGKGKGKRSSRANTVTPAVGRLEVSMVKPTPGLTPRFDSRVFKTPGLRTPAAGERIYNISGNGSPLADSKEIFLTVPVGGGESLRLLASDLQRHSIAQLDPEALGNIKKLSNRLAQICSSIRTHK

T6: CDCA8delta9
T6 chain: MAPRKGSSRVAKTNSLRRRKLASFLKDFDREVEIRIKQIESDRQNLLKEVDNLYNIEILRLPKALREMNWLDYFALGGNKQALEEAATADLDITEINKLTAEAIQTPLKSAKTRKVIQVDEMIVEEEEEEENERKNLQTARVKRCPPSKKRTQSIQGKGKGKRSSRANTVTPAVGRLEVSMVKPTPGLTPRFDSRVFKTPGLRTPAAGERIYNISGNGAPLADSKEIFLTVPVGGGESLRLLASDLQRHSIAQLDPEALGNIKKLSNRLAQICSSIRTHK

T7: full-length recombinant CDCA8 protein (wild-type, N-terminal His tag)
T7 chain: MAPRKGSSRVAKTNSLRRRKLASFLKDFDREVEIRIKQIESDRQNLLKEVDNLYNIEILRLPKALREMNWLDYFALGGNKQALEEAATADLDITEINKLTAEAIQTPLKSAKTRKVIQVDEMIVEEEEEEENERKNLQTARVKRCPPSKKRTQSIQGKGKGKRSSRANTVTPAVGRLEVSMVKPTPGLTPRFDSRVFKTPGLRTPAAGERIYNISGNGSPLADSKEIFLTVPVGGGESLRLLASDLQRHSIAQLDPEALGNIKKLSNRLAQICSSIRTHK


Assays:
MRC5 cells = assay: MTT assay with 11R-peptides on normal lung fibroblasts; assay type: cell-based; settings: MRC5, normal human lung fibroblast derived; CDCA8 and AURKB hardly detectable
CCD19-Lu cells = assay: Cell viability with 11R-peptides on normal lung fibroblasts; assay type: cell-based; settings: normal human lung fibroblast derived, CDCA8 and AURKB hardly detectable
BEAS-2B cells = assay: MTT assay with 11R-peptides on bronchial epithelia derived cells; assay type: cell-based; settings: human bronchial epithelia derived, CDCA8 and AURKB hardly detectable
Experimental: LC319, SBC-5 cells and BEAS-2B cells were incubated with the 11R-peptides at the concentration of 2.5 micromoles, 5 micromoles, and 7.5 micromoles for seven days. The medium was exchanged at every 48 hours at the appropriate concentrations of each peptide and the viability of cells was evaluated by MTT assay at 7 days after the treatment. To confirm the transduction efficiency of the peptides, the 11R-CDCA8261-280 and its control peptides labeled with fluorescein isothiocyanate (FITC) at N-terminus were synthesized. Transduction of the peptides (2.5-7.5 micromoles) was monitored by fluorescence microscopic observation after a 3-hour incubation of the peptides with the cell lines at 37 degrees C.

11R-CDCA8261-280 = target: T1, 11R-CDCA8261-280
CDCA8delta11 = target: T2, CDCA8delta11
CDCA8delta12 = target: T3, CDCA8delta12
CDCA8delta13 = target: T4, CDCA8delta13
CDCA8delta8 = target: T5, CDCA8delta8
CDCA8delta9 = target: T6, CDCA8delta9
[1] = target: T7, full-length recombinant CDCA8 protein …

Molecule	cell viability of normal cells (MRC5 cells)	cell viability of normal cells (CCD19-Lu cells)	cell viability of normal cells (BEAS-2B cells)	phosphorylation level of rhCDCA8 by rhAURKB in in vitro kinase assay (11R-CDCA8261-280)	phosphorylation level in in vitro kinase assay (CDCA8delta1)	phosphorylation level in in vitro kinase assay (CDCA8delta10)	phosphorylation level in in vitro kinase assay (CDCA8delta11)	phosphorylation level in in vitro kinase assay (CDCA8delta12)	phosphorylation level in in vitro kinase assay (CDCA8delta13)	phosphorylation level in in vitro kinase assay (CDCA8delta2)	phosphorylation level in in vitro kinase assay (CDCA8delta3)	phosphorylation level in in vitro kinase assay (CDCA8delta4)	phosphorylation level in in vitro kinase assay (CDCA8delta5)	phosphorylation level in in vitro kinase assay (CDCA8delta6)	phosphorylation level in in vitro kinase assay (CDCA8delta7)	phosphorylation level in in vitro kinase assay (CDCA8delta8)	phosphorylation level in in vitro kinase assay (CDCA8delta9)	in vitro phosphorylation ([gamma-32P] ATP kinase assay) [1]
CC[C@H](C)[C@H](NC(=O)[C@H](CC(N)=O)NC(=O)CNC(=O)CNC(=O)CNC(=O)[C@H](CCCNC(=N)N)NC(=O)[C@H](CCCNC(=N)N)NC(=O)[C@H](CCCNC(=N)N)NC(=O)[C@H](CCCNC(=N)N)NC(=O)[C@H](CCCNC(=N)N)NC(=O)[C@H](CCCNC(=N)N)NC(=O)[C@H](CCCNC(=N)N)NC(=O)[C@H](CCCNC(=N)N)NC(=O)[C@H](CCCNC(=N)N)NC(=O)[C@H](CCCNC(=N)N)NC(=O)[C@@H](N)CCCNC(=N)N)C(=O)N[C@@H](CCCCN)C(=O)N[C@@H](CCCCN)C(=O)N[C@@H](CC(C)C)C(=O)N[C@@H](CO)C(=O)N[C@@H](CC(N)=O)C(=O)N[C@@H](CCCNC(=N)N)C(=O)N[C@@H](CC(C)C)C(=O)N[C@@H](C)C(=O)N[C@@H](CCC(N)=O)C(=O)N[C@H](C(=O)N[C@@H](CS)C(=O)N[C@@H](CO)C(=O)N[C@@H](CO)C(=O)N[C@H](C(=O)N[C@@H](CCCNC(=N)N)C(=O)N[C@H](C(=O)N[C@@H](Cc1c[nH]cn1)C(=O)N[C@@H](CCCCN)C(=O)O)[C@@H](C)O)[C@@H](C)CC)[C@@H](C)CC [11R-CDCA8261-280] (H-RRRRRRRRRRRGGGNIKKLSNRLAQICSSIRTHK-OH)	no off-target effect	no effect	no significant growth suppressive effect	–	–	–	–	–	–	–	–	–	–	–	–	–	–	–
recombinant AURKB (Catalog No. 14-489; upstate) (protein) MAQKENSYPWPYGRQTAPSGLSTLPQRVLRKEPVTPSALVLMSRSNVQPTAAPGQKVMENSSGTPDILTRHFTIDDFEIGRPLGKGKFGNVYLAREKKSHFIVALKVLFKSQIEKEGVEHQLRREIEIQAHLHHPNILRLYNYFYDRRRIYLILEYAPRGELYKELQKSCTFDEQRTATIMEELADALMYCHGKKVIHRDIKPENLLLGLKGELKIADFGWSVHAPSLRRKTMCGTLDYLPPEMIEGRMHNEKVDLWCIGVLCYELLVGNPPFESASHNETYRRIVKVDLKFPASVPMGAQDLISKLLRHNPSERLPLAQVSAHPWVRANSRRVLPPSALQSVA	–	–	–	the phosphorylation level of rhCDCA8 was significantly suppressed by the treatment with 11R-CDCA8261-280 peptides ... compared to its scramble peptides	represented the same levels of phosphorylation compared to wild-type CDCA8	showed the same levels of phosphorylation compared with wild-type	revealed the reduction of phosphorylation levels in four mutated-constructs	revealed the reduction of phosphorylation levels in four mutated-constructs	complete disappearance of CDCA8 phosphorylation by AURKB	a reduction of phosphorylation levels was detected in three mutated constructs (CDCA8delta2, -delta5, and -delta6), as compared to a wild-type	represented the same levels of phosphorylation compared to wild-type CDCA8	represented the same levels of phosphorylation compared to wild-type CDCA8	a reduction of phosphorylation levels was detected in three mutated constructs (CDCA8delta2, -delta5, and -delta6), as compared to a wild-type	a reduction of phosphorylation levels was detected in three mutated constructs (CDCA8delta2, -delta5, and -delta6), as compared to a wild-type	showed the same levels of phosphorylation compared with wild-type	revealed the reduction of phosphorylation levels in four mutated-constructs	revealed the reduction of phosphorylation levels in four mutated-constructs	CDCA8 was phosphorylated in an AURKB-dose-dependent manner
